Laboratory results from patent publication US20260137799A1, “ANTI-MUC1* ANTIBODY DRUG COMPLEXES AND USES THEREOF” (Minerva Biotechnologies Corporation, priority 2023, published 2026).

Key:
[1] = biological target: PSMGFR N-10 peptide (SEQ ID NO: 2) (Homo sapiens, UniProt P15941); experiment: ELISA binding to PSMGFR N-10 peptide
Description: (§1) Cancer selective anti-MUC1* antibodies bind to a membrane proximal conformational epitope within the MUC1* extracellular domain, as described in WO 2020/146902.
(§2) The 3C2B1 epitope was mapped more precisely with additional PSMGFR peptide variants (FIGS. 2A, 2B).

[2] = system: lung cancer specimens; experiment: IHC of tissue microarray, lung cancer; assay type: binding, human; details: 108 specimens, antibodies at 15 μg/mL
Description: (§3) Tissue microarrays are typically made up of hundreds of tissue specimens, where each specimen in the array comes from a different patient. The breast cancer array contained patient specimens of all types of invasive breast cancers, including less common forms such as carcinomas with medullary features and papillary carcinomas. The lung cancer array contained specimens from patients diagnosed with squamous cell carcinoma, adenocarcinoma, mucinous adenocarcinoma, adenosquamous carcinoma and large cell carcinoma. The pancreatic cancer tissue microarray contained specimens from patients with ductal adenocarcinomas.
Of the 108 lung cancer specimens, a total of 61 stained positive with C2, 3C2B1, or both. […] The converse, C2 staining better than 3C2B1, was true in only 5 of the 108 specimens, and these specimens stained weakly with both antibodies. A total of 37 specimens were stained essentially the same with 3C2B1 and C2 antibody.
(§4) Cancerous tissue arrays were purchased from Tissue Array (Derwood, MD). After deparaffinization, antigen retrieval (pH 6.0) was performed for 10 min. The sections incubated in blocking buffer (10% normal goat serum and 5% BSA in TBS) at room temperature for 1 hr before incubating in either C2 or 3C2B1 in 1% BSA-TBS overnight at 4° C. In this particular assay, both antibodies were used at a concentration of 15 μg/mL. […]

[3] = system: breast cancer specimens; experiment: IHC of tissue microarray, breast cancer; assay type: binding, human; details: 109 specimens, antibodies at 15 μg/mL
Description: as §3
Of the 109 breast cancer specimens, 56 stained positive with C2, 3C2B1, or both. Twenty-two (22) of the specimens stained robustly with C2 and stained less well or not at all with 3C2B1. The converse, 3C2B1 staining better than C2, was true in only 5 of the 109 specimens. Twenty-nine (29) specimens were stained essentially the same with C2 and 3C2B1 antibody.
as §4

[4] = system: HPAFII pancreatic cancer cells; experiment: Antibody internalization (pHrodo Deep Red), HPAFII; assay type: cell-based, human
Procedure: (§5) Internalization of antibody 3C2B1 into HPAFII pancreatic cancer cells (FIGS. 5A-5G) and OE19 esophageal cancer cells (FIGS. 5H-5N) was detectable after 8 hours and nearly complete at 16 hours. The results are quantified in FIG. 5O.
(§6) Antibodies C2 and 3C2B1 were coupled to a pH sensitive fluorophore using the pHrodo Deep Red TFP Ester kit (Thermo cat #P35356), according to manufacturer instructions. Cancer cells were seeded at ˜50,000 cells/well onto μ-Slide 8-well tissue culture-treated, chambered coverslip wells (Ibidi 80806) in their recommended media with 10% FBS. Cells were cultured for 48 hours. Slides were transferred into microscope chamber (37° C.—5% CO2) and equilibrated for ˜30 minutes. The pHrodo Deep Red coupled antibody was then diluted to a concentration of 200 to 300 μg/mL into pre-warmed media supplemented with 10% FBS. Media was removed from the chamber slides and the diluted antibodies were separately added. […]
(§7) Internalization of the fluorescently labeled antibodies was quantified as follows. […] The integrated pixel density (mean gray-scale value×area) was then measured by the ImageJ software. Positively-stained cells were manually counted and the integrated pixel density was divided by the number of positive cells to yield “Pixel Intensity per positive cell”.

[5] = system: OE19 esophageal cancer cells; experiment: Antibody internalization (pHrodo Deep Red), OE19; assay type: cell-based
Procedure: as §5, §6, §7

[6] = system: T47D-MUC1*45 cells; experiment: Antibody internalization (pHrodo Deep Red), T47D-MUC1*45; assay type: cell-based, human
Procedure: Antibodies C2 and 3C2B1 were tested for their ability to be internalized by T47D breast cancer cells (T47D-wt) or T47D cells that were engineered to express high levels of a recombinant MUC1* polypeptide with a 45 amino acid extracellular domain (T47D-MUC1*45), as described in WO2010042562 and WO2010042891. […] C2 internalization was detected within 2.5 hours in T47D-wt cells (FIGS. 3A-3F) and was increased by MUC1*45 expression (FIGS. 3G-3L). […] Unexpectedly, MUC1*45 expression inhibited 3C2B1 internalization (FIG. 3S-3X).
as §6, with “minutes.” for “minutes. The pHrodo Deep Red coupled antibody was then diluted to a concentration of 200 to 300 μg/mL into pre-warmed media supplemented with 10% FBS. Media was removed from the chamber slides and the diluted antibodies were separately added.”
as §7

[7] = system: H1975-MUC1*45 cells; experiment: Antibody internalization (pHrodo Deep Red), H1975-MUC1*45; assay type: cell-based, human
Procedure: Antibodies C2 and 3C2B1 were tested for their ability to be internalized by H1975 lung cancer cells (H1975-wt) and H1975 cells that were engineered to express high levels of a recombinant MUC1* polypeptide with a 45 amino acid extracellular domain (H1975-MUC1*45). In contrast to the T47D breast cancer cells, H1975-wt cells internalized 3C2B1 faster than they internalized C2 (FIGS. 4A1-4A28, 4C1-4C28 and 4E). Two (2) hours post incubation with H1975-wt cells, […] the cells had internalized C2. […] Similar to the T47D cells, MUC1*45 expression increased the internalization rate of C2 and decreased the internalization rate of 3C2B1 (FIGS. 4B1-4B28, 4D1-4D28 and 4E).
Antibodies C2 and 3C2B1 were coupled to a pH sensitive fluorophore using the pHrodo Deep Red TFP Ester kit (Thermo cat #P35356), according to manufacturer instructions. Cancer cells were seeded at ˜50,000 cells/well onto μ-Slide 8-well tissue culture-treated, chambered coverslip wells (Ibidi 80806) in their recommended media with 10% FBS. Cells were cultured for 48 hours. Slides were transferred into microscope chamber (37° C.—5% CO2) and equilibrated for ˜30 minutes. The pHrodo Deep Red coupled antibody was then diluted to a concentration of 200 to 300 μg/mL into pre-warmed media supplemented with 10% FBS. Media was removed from the chamber slides and the diluted antibodies were separately added. Fluorescent (655 nm) and phase contrast images at were collected every 10 min for 12h or 16 h with a Leica Thunder Live Cell 3D microscope.
Internalization of the fluorescently labeled antibodies was quantified as follows. Images were imported into ImageJ. The selection tool was used to draw a region of interest (ROI) on the image. The integrated pixel density (mean gray-scale value×area) was then measured by the ImageJ software. Positively-stained cells were manually counted and the integrated pixel density was divided by the number of positive cells to yield “Pixel Intensity per positive cell”.

[8] = biological target: PSMGFR N-30 (SEQ ID NO: 157) (Homo sapiens, UniProt P15941); experiment: Epitope mapping, binding to PSMGFR N-30 peptide
Description: FIG. 2B quantifies binding of the 3C2B1 anti-MUC1* antibody to the peptides of FIG. 2A.
as §2

[9] = biological target: PSMGFR peptide (SEQ ID NO: 1) (Homo sapiens, UniProt P15941); experiment: ELISA binding to PSMGFR peptide
Description: MUC1* is a cancer-specific antigen produced by proteolytic cleavage of the extracellular domain of MUC1. The extracellular domain of MUC1* comprises about 45 amino acids. Monoclonal antibodies generated against the PSMGFR peptide (SEQ ID NO: 1) bind to MUC1*, as described in WO 2020/146902.
as §1, §2

Chain of PSMGFR peptide (SEQ ID NO: 1) (P15941 1110-1154): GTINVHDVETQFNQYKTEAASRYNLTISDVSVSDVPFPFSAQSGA
Chain of PSMGFR N-10 peptide (SEQ ID NO: 2) (P15941 1120-1154 limits assumed): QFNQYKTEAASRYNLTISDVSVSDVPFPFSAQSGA

B1: 3C2B1: anti-MUC1* monoclonal antibody that bound to the PSMGFR peptide (antibody, V domains shown)
VH: EVMLVESGGGLVKPGGSLKLSCAASGITFSTYTMSWVRQTPEKRLEWVATISTGGDKTYYSDSVKGRFTISRDNAKNNLYLQMSSLRSEDTALYYCARGTTAMYYYAMDYWGQGTSVTVSS
VL: DIVLTQSPASLAVSLGQRATISCRASKSISTSDYNYIHWYQQKPGQPPKLLIYLASNLESGVPARFSGSGSGTDFTLNIHPVEEEDAATYYCQHSRELPLTFGAGTKLELK
For B1, the “binding to PSMGFR N-10” value [1] was “bind”, the “3C2B1 > C2 (number of specimens stained better with 3C2B1)” value [2] was 19 and the “3C2B1 > C2 (number of specimens stained better with 3C2B1)” value [3] was 5. For the same molecule, the “time after which internalization was detectable” value [4] was 8 h, the “time at which internalization was nearly complete” value [4] was 16 h and the “time after which internalization was detectable” value [5] was 8 h. For the same molecule, the “time at which internalization was nearly complete” value [5] was 16 h, the “effect of MUC1*45 expression on internalization” value ([6]; T47D-MUC1*45 vs T47D-wt) was “inhibited” and the “fraction of cells that internalized detectable antibody” value ([6]; T47D-MUC1* cells, after 14 hours) was “Less than half”. The “time by which essentially all the cells had internalized the antibody” value ([7]; H1975-MUC1*45 cells) was 8 h, the “effect of MUC1*45 expression on internalization rate” value ([7]; H1975-MUC1*45 vs H1975-wt) was “decreased” and the “binding to N-30 variant PSMGFR peptide” value [8] was “bound”. The “binding to the PSMGFR 45mer peptide” value [9] was “bind”.
